Experimental data: patent publication EP4725969A1 (Latticon (Suzhou) Biopharmaceuticals Co., Ltd., dated 2024)
Changes are numbered by the printed parent chain. Values belong to the binder of their own block, whether it stands above or below them.

Biological target: T1, recombinant human HER2 extracellular domain protein (human, UniProt P04626 23-652)
T1 construct: range 23-652; Range is printed for the immunogen/panning protein; also called ErbB2; recombinant HER2 protein
Assay: BLI, Protein A capture

B1: 2126-Hu-H43 (antibody, IgG1, V domains shown)
VH: QVQLVQSGSELKKPGASVKVSCKASGYTFTDYSMHWVRQAPGQGLEWMGWINTETGEPTYADDFKGRFVFSLDTSTSTAYLQISSLKAEDTAVYFCVRVGRYDYAMDYWGQGTTVTVSS
VL: DIQMTQSPSSLSASVGDRVTITCKASQDVYTAVAWYQQKPGKAPKLLINSASYRYTGVPSRFSGSGSGTDFTLTISSLQPEDFATYYCQQHYSTPPTFGGGTKVEIK
notes: IgG1/Cκ
Kd: 7.2 nM | kon: 107000 M⁻¹ s⁻¹

B5: 2126-Hu-H45 (antibody, IgG1, V domains shown)
VH: B1 VH with T76V, I83M
VL: B1 VL
notes: IgG1/Cκ
Kd: 5.76 nM | koff: 0.000598 s⁻¹ | kon: 104000 M⁻¹ s⁻¹

B6: 2126-Hu-L02 (antibody, IgG1, V domains shown)
VH: B1 VH with T76V
VL: B1 VL with K24R
notes: IgG1/Cκ
Kd: 5.58 nM | koff: 0.000551 s⁻¹ | kon: 98700 M⁻¹ s⁻¹

B10: 2126-Hu-H53 (antibody, IgG1, name in Kabat numbering, V domains shown)
VH: B1 VH with T76V, Y102N
VL: B1 VL
notes: IgG1/Cκ
Kd: 46.9 nM | koff: 0.00475 s⁻¹ | kon: 101000 M⁻¹ s⁻¹

B11: 2126-Hu-H49 (antibody, IgG1, name in Kabat numbering, V domains shown)
VH: B1 VH with T76V, R101N
VL: B1 VL
notes: IgG1/Cκ
Kd: 35.9 nM | koff: 0.00533 s⁻¹ | kon: 149000 M⁻¹ s⁻¹

B13: 2126-Hu-H61 (antibody, IgG1, V domains shown)
VH: B1 VH with T76V, M106F
VL: B1 VL
notes: IgG1/Cκ
Kd: 22 nM | koff: 0.00201 s⁻¹ | kon: 91400 M⁻¹ s⁻¹

B17: 2126-Hu-L09 (antibody, IgG1, V domains shown)
VH: B1 VH with T76V
VL: B1 VL with Y53K
notes: IgG1/Cκ
Kd: 5.11 nM | koff: 0.00049 s⁻¹ | kon: 95900 M⁻¹ s⁻¹

B18: 2126-Hu-L08 (antibody, IgG1, V domains shown)
VH: B1 VH with T76V
VL: B1 VL with Y53E
notes: IgG1/Cκ
Kd: 6.57 nM | koff: 0.00062 s⁻¹ | kon: 94300 M⁻¹ s⁻¹

B19: 2126-Hu-H46 (antibody, IgG1, V domains shown)
VH: B1 VH with T76V, F95Y
VL: B1 VL
notes: IgG1/Cκ
Kd: 5.7 nM | koff: 0.000597 s⁻¹ | kon: 105000 M⁻¹ s⁻¹

B20: 2126-Hu-H51 (antibody, IgG1, name in Kabat numbering, V domains shown)
VH: B1 VH with T76V, Y102F
VL: B1 VL
notes: IgG1/Cκ
Kd: 23.8 nM | koff: 0.00244 s⁻¹ | kon: 103000 M⁻¹ s⁻¹

B21: 2126-Hu-L01 (antibody, IgG1, V domains shown)
VH: B1 VH with T76V
VL: B1 VL with D28S
notes: IgG1/Cκ
Kd: 17.5 nM | koff: 0.00195 s⁻¹ | kon: 112000 M⁻¹ s⁻¹

B24: 2126-Hu-L07 (antibody, IgG1, V domains shown)
VH: B1 VH with T76V
VL: B1 VL with Y53D
notes: IgG1/Cκ
Kd: 6.46 nM | koff: 0.00061 s⁻¹ | kon: 94300 M⁻¹ s⁻¹

The remaining lines, values ahead:

Kd: 13.4 nM | koff: 0.00139 s⁻¹ | kon: 104000 M⁻¹ s⁻¹
B2: 2126-Hu-L05 (antibody, IgG1, V domains shown)
VH: B1 VH with T76V
VL: B1 VL with N49Y
notes: IgG1/Cκ

Kd: 17.8 nM | koff: 0.00362 s⁻¹ | kon: 204000 M⁻¹ s⁻¹
B3: 2126-Hu-H47 (antibody, IgG1, name in Kabat numbering, V domains shown)
VH: B1 VH with T76V, R101F
VL: B1 VL
notes: IgG1/Cκ

Kd: 33.7 nM | koff: 0.00452 s⁻¹ | kon: 134000 M⁻¹ s⁻¹
B4: 2126-Hu-H55 (antibody, IgG1, name in Kabat numbering, V domains shown)
VH: B1 VH with T76V, D103A
VL: B1 VL
notes: IgG1/Cκ

Kd: 19.3 nM | koff: 0.00292 s⁻¹ | kon: 152000 M⁻¹ s⁻¹
B7: 2126-Hu-H52 (antibody, IgG1, name in Kabat numbering, V domains shown)
VH: B1 VH with T76V, Y102S
VL: B1 VL
notes: IgG1/Cκ

Kd: 39.5 nM | koff: 0.00186 s⁻¹ | kon: 47100 M⁻¹ s⁻¹
B8: 2126-Hu-L03 (antibody, IgG1, V domains shown)
VH: B1 VH with T76V
VL: B1 VL with Y30S
notes: IgG1/Cκ

Kd: 25.3 nM | koff: 0.00287 s⁻¹ | kon: 113000 M⁻¹ s⁻¹
B9: 2126-Hu-H59 (antibody, IgG1, V domains shown)
VH: B1 VH with T76V, D103S
VL: B1 VL
notes: IgG1/Cκ

Kd: 23.8 nM | koff: 0.00361 s⁻¹ | kon: 152000 M⁻¹ s⁻¹
B12: 2126-Hu-H60 (antibody, IgG1, name in Kabat numbering, V domains shown)
VH: B1 VH with T76V, D103Y
VL: B1 VL
notes: IgG1/Cκ

Kd: 26.3 nM | koff: 0.00409 s⁻¹ | kon: 155000 M⁻¹ s⁻¹
B14: 2126-Hu-H58 (antibody, IgG1, name in Kabat numbering, V domains shown)
VH: B1 VH with T76V, D103Q
VL: B1 VL
notes: IgG1/Cκ

Kd: 34.1 nM | koff: 0.00392 s⁻¹ | kon: 115000 M⁻¹ s⁻¹
B15: 2126-Hu-H48 (antibody, IgG1, name in Kabat numbering, V domains shown)
VH: B1 VH with T76V, R101K
VL: B1 VL
notes: IgG1/Cκ

Kd: 6.63 nM | koff: 0.000659 s⁻¹ | kon: 99400 M⁻¹ s⁻¹
B16: 2126-Hu-L06 (antibody, IgG1, V domains shown)
VH: B1 VH with T76V
VL: B1 VL with S50A
notes: IgG1/Cκ

Kd: 5.3 nM | koff: 0.000562 s⁻¹ | kon: 106000 M⁻¹ s⁻¹
B22: 2126-Hu-H44 (antibody, IgG1, V domains shown)
VH: B1 VH with T76V, I83L
VL: B1 VL
notes: IgG1/Cκ

Kd: 13.9 nM | koff: 0.000611 s⁻¹ | kon: 43900 M⁻¹ s⁻¹
B23: 2126-Hu-L04 (antibody, IgG1, V domains shown)
VH: B1 VH with T76V
VL: B1 VL with A32Y
notes: IgG1/Cκ

Kd: 8 nM | koff: 0.000902 s⁻¹ | kon: 113000 M⁻¹ s⁻¹
B25: 2126-Hu-H50 (antibody, IgG1, V domains shown)
VH: B1 VH with T76V, R101Y
VL: B1 VL
notes: IgG1/Cκ

Kd: 14.5 nM | koff: 0.00217 s⁻¹ | kon: 150000 M⁻¹ s⁻¹
B26: 2126-Hu-H57 (antibody, IgG1, name in Kabat numbering, V domains shown)
VH: B1 VH with T76V, D103G
VL: B1 VL
notes: IgG1/Cκ

Kd: 7.96 nM | koff: 0.000936 s⁻¹ | kon: 118000 M⁻¹ s⁻¹
B27: 2126-Hu-H54 (antibody, IgG1, V domains shown)
VH: B1 VH with T76V, Y102G
VL: B1 VL
notes: IgG1/Cκ

Kd: 36.2 nM | koff: 0.00476 s⁻¹ | kon: 131000 M⁻¹ s⁻¹
B28: 2126-Hu-H56 (antibody, IgG1, name in Kabat numbering, V domains shown)
VH: B1 VH with T76V, D103E
VL: B1 VL
notes: IgG1/Cκ
